In PMC9198586:

Target: p53 (human, wild type) (human (endogenous in HCT 116, MCF7, U2OS)), P04637
Test: co-IP; HCT 116 colon cancer cells, untreated or treated with RITA; co-immunoprecipitation of p53/MDM2 or p53/MDM4 as described previously (Issaeva et al., 2004)
Conditions: remark: other sources report otherwise

Sequence of p53 (human, wild type) (human (endogenous in HCT 116, MCF7, U2OS)), P04637 (P04637 whole entry): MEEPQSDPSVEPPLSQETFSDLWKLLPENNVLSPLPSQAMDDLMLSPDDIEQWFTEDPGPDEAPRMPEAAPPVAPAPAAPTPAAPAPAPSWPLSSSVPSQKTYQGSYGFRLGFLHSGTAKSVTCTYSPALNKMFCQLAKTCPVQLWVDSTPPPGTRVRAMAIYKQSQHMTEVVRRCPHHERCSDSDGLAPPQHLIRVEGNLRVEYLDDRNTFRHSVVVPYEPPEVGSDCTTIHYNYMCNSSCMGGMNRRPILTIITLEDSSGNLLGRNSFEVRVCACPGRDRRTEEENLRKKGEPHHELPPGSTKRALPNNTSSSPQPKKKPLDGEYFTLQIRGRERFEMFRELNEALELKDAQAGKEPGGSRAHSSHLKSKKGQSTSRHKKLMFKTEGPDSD

percent reduction of the amount of MDMX bound to p53 by RITA: 43%
B1: MDM4 (MDMX), human, O15151 1-490 (natural protein)
chain: MTSFSTSAQCSTSDSACRISPGQINQVRPKLPLLKILHAAGAQGEMFTVKEVMHYLGQYIMVKQLYDQQEQHMVYCGGDLLGELLGRQSFSVKDPSPLYDMLRKNLVTLATATTDAAQTLALAQDHSMDIPSQDQLKQSAEESSTSRKRTTEDDIPTLPTSEHKCIHSREDEDLIENLAQDETSRLDLGFEEWDVAGLPWWFLGNLRSNYTPRSNGSTDLQTNQDVGTAIVSDTTDDLWFLNESVSEQLGVGIKVEAADTEQTSEEVGKVSDKKVIEVGKNDDLEDSKSLSDDTDVEVTSEDEWQCTECKKFNSPSKRYCFRCWALRKDWYSDCSKLTHSLSTSDITAIPEKENEGNDVPDCRRTISAPVVRPKDAYIKKENSKLFDPCNSVEFLDLAHSSESQETISSMGEQLDNLSEQRTDTENMEDCQNLLKPCSLCEKRPRDGNIIHGRTGHLVTCFHCARRLKKAGASCPICKKEIQLVIKVFIA
